Three molecules from patent US20170306048A1 (SORRENTO THERAPEUTICS, published 2017) can be followed below.

Several values for one entry are separate records, joined by “and”; a condition that tells them apart may be missing. Equal entries are not always repeated.

Assay [1] deals with T1, recombinant human STAT3 protein (human, UniProt P40763 1-770, limits assumed).
T1 construct: also called recombinant human STAT3 proteins; antigen
Description: ELISA on recombinant human STAT3 protein, Abs 450. (In general: ELISA stands for enzyme-linked immunosorbent assay.)

Assay [2] addresses T1, recombinant human STAT3 protein. Description: ELISA on recombinant human STAT3 protein, absorbance at 450.
Assay [3] addresses T2, human STAT3, endogenous, in human cell lines (U251, MDA-MB-468, HeLa, MCF-10A, MCF-7, COLO205) (human, UniProt P40763 2-770).
T2 construct: whole, on cells; also called cellular antigens
Description: flow cytometry (HTFC) on permeabilised U251 cells, PE anti-human IgG. The procedure: After 45 minutes at room temperature, cells were washed twice and incubated with phycoerythrin (PE) conjugated-anti-human IgG for 20 minutes at room temperature in the dark. Cells were then washed and analyzed by high throughput flow cytometry (HTFC). The results are shown in FIG. 4 for assessment of antibody binding to U251 cells.

Assay [4] addresses T3, recombinant human STAT3-GST (human, UniProt P40763 1-770, limits assumed).
T3 construct: Analyte in the Biacore assay; not shown: GST (glutathione S-transferase) tag
Description: SPR (Biacore T200), antibody captured on anti-human Fc, STAT3-GST as analyte, 1:1 model. The method, then: Anti-human Fc antibody (GE, BR-1008-39) was immobilized on a CM5 sensor chip to approximately 1000 RU using standard NHS/EDC coupling methodology. Antibodies (approximately 10 ug/ml) were captured for 60 seconds at a flow rate of 10 ul/min Recombinant human STAT3-GST was serially diluted 2-fold into running buffer (HBS-EP+, starting from […]). All measurements were conducted at a flow rate of 30 ul/min Surfaces were regenerated with 3M MgCl₂ (from human antibody kit) for 60 seconds. A 1:1 (Langmuir) binding model was used to fit the data.
On the technique in general: Surface plasmon resonance follows binding to a sensor surface in real time, without labels.

Assay [5] concerns the target T2, human STAT3, endogenous, in human cell …. Description: flow cytometry on PFA-fixed, methanol-permeabilised U251 cells, PE anti-human IgG, MFI (FL-2). The procedure:
(§1) Next, the binding of the candidate anti-STAT3 antibodies to cellular targets was tested in cell binding assays using MDA-MB-435 breast cancer cells and U251 cells. The cells were seeded overnight in a 96 well plate, then fixed with PFA and permeabilized with methanol. Cells were incubated with serial dilutions of the anti-STAT3 antibody candidates ST1A5, ST3G12 and ST5G12 for one hour and 30 minutes. Following incubation, the cells were washed and incubated for 30 minutes with phycoerythrin (PE) conjugated anti-human IgG. Fluorescence was measured on an Intellicyte high-throughput flow cytometry analyzer. […] Bevacizumab (Avastin), a monoclonal antibody that inhibits vascular endothelial growth factor A (VEGF-A) was used as a negative control.
On the technique in general: In flow cytometry, cells or beads pass a laser one at a time.

Assay [6] deals with T4, mouse STAT3, endogenous, in mouse cell lines CT-26 and MC-38 (mouse, UniProt P42227 2-770).
T4 construct: whole, on cells; Intracellular protein
Description: flow cytometry on fixed, permeabilised mouse CT-26 and MC-38 cells, PE anti-human IgG; antibody concentration not given.

Assay [7] addresses T1, recombinant human STAT3 protein. Description: STAT3 binding ELISA, Hu-IgG-Fab detection (title on the sheet), OD 450 nm, ng/ml is the unit of the x axis.
Assay [8] deals with human IgG. The assay can be described thus: ELISA in Superblock buffer, OD 450 nm; partner not named on the sheet, legend paragraph 53 says 'to human IgG', ng/ml is the unit of the x axis.
Assay [9] deals with T1, recombinant human STAT3 protein. Description: ELISA in Superblock buffer, OD 450 nm; antigen named neither on the sheet nor in legend paragraph 54, taken as the antibody's antigen STAT3, ng/ml is the unit of the x axis.
Assay [10] shares this target. Description: ELISA in Superblock buffer, OD 450 nm; antigen named neither on the sheet nor in legend paragraph 54, taken as the antibody's antigen STAT3; unit from the x axis.
For assay [11], the target named is human IgG. The assay can be described thus: ELISA in Superblock buffer, OD 450 nm; partner not named on the sheet, legend paragraph 53 says 'to human IgG'; column taken as the curve ST3G12-PS superblock; unit from the x axis.
For assay [12], the target named is T2, human STAT3, endogenous, in human cell …. The assay can be described thus: flow cytometry on PFA-fixed, methanol-permeabilised MDA-MB-468 cells, PE anti-human IgG, MFI (FL-2). The method, then:
as §1

T3 sequence (P40763 whole entry): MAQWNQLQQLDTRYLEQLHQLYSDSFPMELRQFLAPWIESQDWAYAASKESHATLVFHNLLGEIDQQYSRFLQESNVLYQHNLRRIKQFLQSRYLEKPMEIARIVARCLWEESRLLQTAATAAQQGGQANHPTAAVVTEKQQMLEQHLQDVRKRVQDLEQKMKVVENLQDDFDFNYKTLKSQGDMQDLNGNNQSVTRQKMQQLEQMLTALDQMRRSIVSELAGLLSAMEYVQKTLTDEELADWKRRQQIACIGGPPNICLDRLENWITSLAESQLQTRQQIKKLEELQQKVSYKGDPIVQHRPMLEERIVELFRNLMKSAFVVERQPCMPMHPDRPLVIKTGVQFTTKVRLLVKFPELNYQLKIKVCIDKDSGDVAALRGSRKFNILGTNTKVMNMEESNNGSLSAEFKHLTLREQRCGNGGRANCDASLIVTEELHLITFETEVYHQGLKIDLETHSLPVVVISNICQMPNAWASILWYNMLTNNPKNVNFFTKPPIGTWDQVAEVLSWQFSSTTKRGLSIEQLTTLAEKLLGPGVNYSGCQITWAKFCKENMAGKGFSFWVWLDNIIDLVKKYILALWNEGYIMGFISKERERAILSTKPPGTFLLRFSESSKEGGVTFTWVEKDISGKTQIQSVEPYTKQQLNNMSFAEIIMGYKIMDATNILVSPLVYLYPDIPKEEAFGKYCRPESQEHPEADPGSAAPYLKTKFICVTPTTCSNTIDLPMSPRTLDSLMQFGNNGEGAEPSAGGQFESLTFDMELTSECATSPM
T1 sequence (P40763 whole entry): as above
T2 sequence (P40763 2-770): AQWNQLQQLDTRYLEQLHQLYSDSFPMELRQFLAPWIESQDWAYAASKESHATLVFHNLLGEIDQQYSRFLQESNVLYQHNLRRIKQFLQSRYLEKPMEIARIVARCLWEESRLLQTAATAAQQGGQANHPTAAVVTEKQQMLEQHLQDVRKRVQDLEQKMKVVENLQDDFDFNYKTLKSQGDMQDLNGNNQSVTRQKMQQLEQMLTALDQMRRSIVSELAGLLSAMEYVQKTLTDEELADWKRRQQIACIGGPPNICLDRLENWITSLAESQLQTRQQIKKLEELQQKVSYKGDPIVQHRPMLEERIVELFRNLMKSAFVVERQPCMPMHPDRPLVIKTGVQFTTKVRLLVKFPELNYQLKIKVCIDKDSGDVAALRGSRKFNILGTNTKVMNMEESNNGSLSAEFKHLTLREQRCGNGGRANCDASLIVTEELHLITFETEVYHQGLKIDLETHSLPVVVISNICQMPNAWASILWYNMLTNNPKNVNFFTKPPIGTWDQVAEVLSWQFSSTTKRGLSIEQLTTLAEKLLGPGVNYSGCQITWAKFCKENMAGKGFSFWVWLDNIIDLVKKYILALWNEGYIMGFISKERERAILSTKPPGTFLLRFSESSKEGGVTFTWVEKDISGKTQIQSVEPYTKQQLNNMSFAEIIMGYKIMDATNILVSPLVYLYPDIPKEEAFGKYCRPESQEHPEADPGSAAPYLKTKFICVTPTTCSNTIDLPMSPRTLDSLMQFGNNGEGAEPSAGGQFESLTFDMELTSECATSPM
T4 sequence (P42227 2-770): as the sequence (P40763 2-770) above, with E759D counted along it

B1: anti-STAT3 antibody ST3G12 (naked / unmodified) (antibody, V domains shown)
VH: QVQLVQSGAEVKKPGASVKVSCKASGYTFTSYYMHWVRQAPGQGLEWMGIINPSGGSTSYAQKFQGRVTMTRDTSTSTVYMELSSLRSEDTAVYYCARSDYVHSFDIWGQGTMVTVSS
VL: QPVLTQPPSASALLGASIKLTCTLSSEHSTYTVEWYQQRPGRSPQYIMNVKSDGSYNKGDGIPDRFMGSSSGADRYLTFSNLQSDDEAEYHCGESHRIDGQVGVVFGGGTKLTVL
notes: Fully human monoclonal antibody, detected with anti-human IgG and captured with anti-human Fc; also called Ab#1; ST3G12-unmodified
Take B1: the EC50 (read off the curve) (in general, the concentration that produces a half-maximal response) was around 0.06 µg/mL in assay [1], around 7 ng/mL in [2], around 10 nM in [3] and around 4 nM in [5]. Besides, the Kd – broadly, the equilibrium constant for the complex coming apart – in assay [4] was determined as 5.39 nM. Moreover, in assay [4], the dissociation rate constant (koff) (as a rule, a measure of how fast the partners let go of each other) was found to be 0.000322 s⁻¹. In assay [4], the kon (as a rule, the rate constant with which the complex forms) turned out to be 59700 M⁻¹ s⁻¹. Moreover, in assay [6], the binding result is “binds”. Further, the figures for the EC50 (in assay [7]; with human IgG [8]; in [9]) were 0.155 µg/mL, 0.122 µg/mL and 0.0257 µg/mL, respectively.

B2: ST3G12-PS antibody conjugate (compound 901) (antibody, V domains shown)
VH: B1 VH
VL: B1 VL
notes: also called PS-ST3G12; Anti-STAT3-PS
With B2, the 50% effective concentration (EC50 (read off the curve)) was ~0.06 µg/mL and ~0.1 µg/mL in [1]; around 7 ng/mL in assay [2]. Moreover, the Kd in assay [4] was determined as 0.222 nM. In addition, the koff in assay [4] was 0.00011 s⁻¹. Moreover, in assay [4], the kon turned out to be 494000 M⁻¹ s⁻¹. The EC50 (in general, the concentration that produces a half-maximal response) worked out at 0.153 µg/mL in assay [7], 0.0643 µg/mL in [10] and 0.186 µg/mL with human IgG [11].

B3: anti-STAT3 antibody ST1A5 (antibody, V domains shown)
VH: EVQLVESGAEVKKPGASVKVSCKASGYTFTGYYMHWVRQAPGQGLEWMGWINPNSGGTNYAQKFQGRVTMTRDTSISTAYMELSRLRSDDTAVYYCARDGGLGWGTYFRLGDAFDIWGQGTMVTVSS
VL: QSVLTQPPSVSKGLRQTATLTCTGNSNNVGNEGAAWLQQHQGHPPKLLSYRNFNRPSGISERFSASRSGNTASLTITGLQPEDEADYYCSAWDSSLSAWVFGGGTKLTVL
notes: Fully human monoclonal antibody detected with anti-human IgG; also called Ab#2
Take B3: the “EC50 (read off the curve)” value in assay [12] is around 5 nM.
